According to the RNAGym collection of RNA variant scans (doi:10.1073/pnas.2313332121):

B1: TPR t1 (parent)
chain: GACCAAUCUGCCCUCAGAGCUCGAGAACAUCUUCGGAUGCAGAGGAGGCAGGCUUCGGUGGCGCGAUAGCGCCAACGUCCUCAACCUCCAAUGCAUCCCACCACAUGAUGAUGCCUGAAGAGCCUUGGUUUUUUG

Variants of: B1
Assay: polymerase ribozyme fitness, log enrichment relative to wild type (log ratio); higher = more active; in vitro selection for triplet polymerase activity
In short: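 Each subunit of a heterodimeric triplet polymerase ribozyme was mutagenized into a library by PCR, transcribed, and subjected to one round of in vitro selection, run in triplicate. Libraries were annealed with a biotinylated primer, the partner subunit and triplets, incubated frozen at −7 °C, and extended constructs were gel-excised, captured on streptavidin beads and recovered by RT-PCR. Input and output libraries were sequenced on Illumina, keeping genotypes with ≥10 input reads and ≥1 read per output. Fitness is log base 2 of genotype enrichment divided by wild-type enrichment, from inverse-variance-weighted replicate averages.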

Variant | polymerase ribozyme fitness (log ratio)
U21G C40U G47U G63U C98A G120C | -7.2
A16U G48U C62G C85A | -3.66
A43U C56A C73A U109A | -5.95
G17U C72G | -2.35
C34A G77C U78C | -2.16
U78C C89A | -0.68
A5U U125A U133G | -0.817
C11U G45A G48A A74U | -2.5
G113U G122C C123A | -2.42
G10U G51A | -2.56
G122U C124A | 1.69
G17C G36C C114G U131G | -4.72
G52C C64U C123U | -0.169
C34G C72G U96C A103U C124A | -7.14
A24G G69A C82A A95C G120A | -4.87
C11U C72U | -0.485
G113A C124A | -1.44
G60A C114G U132G | -4.75
C49U A91U C115A | -2.58
C4G C11A G71A C89U A111U U112A C123A G127C | -2.11
C12A U38C G44A C56G G93A C104G G110U | -7.49
C13A G48U A111C | -2.2
G45A G69U | 1.63
C12G G57C | -0.0296

Variant | polymerase ribozyme fitness (log ratio)
U7A U112A | 1.69
A27G C98U | -3.4
C13A G71U | -1.35
C85U G93A G120U | -0.509
C8G G71U C82U C86U | -1.12
G61C U81A | -3.2
C13G C89G | -3.05
C49U U59G | -1.24
C4U G36A C70A G71A A90G U112G | -6.28
G47A G110C | -4.91
A37G G120A | 0.248
G44C C53A C72U C88U A100U | -0.423
C12U C80U G110A U130C | -0.275
G45U C102A | -3.34
A27U G47U C86U G110C | -6.45
G35A C53G C70A C104U G117U C124G U126G | -6.92
A5C C73A C123G | 1.28
U14G C85G A95C C101G | -6.61
C8A A74C G120U | 2.1
G10C G42C C123A G128A | -2.91
G57A C88U U112G | -2.79
A2G C22G A26G A84U G122A U130C | -5.4
G45A C64U A83G U96G G122A | -2.56
A68U C124A | -4.62

Variant | polymerase ribozyme fitness (log ratio)
U54A C70U C73A C124U U129G | -0.505
G17C C20G G47C C72U G113A A119C | -7.02
C4U C64A C124U | -5.08
G10C C49G U55G C94A | -3.2
G45U G51U C62U U78C C80G | -4.39
C20G G44C C73U U78A A95C | -6.9
C34A A50U G61A G71C C123G | -6.98
C124A G128A | -0.565
A6C G120A | 0.157
G47C C79U G93U | -3.38
U21A U38G U54C U59A | -1.06
G39A A43G G127U | -2.87
C15A U132A | -2.04
A6U A95C | -0.905
C15G U38C C124G | 0.313
G44U G48A C114A | -2.35
A43C C49G | -3.17
U30G C34G C40U C73U A91C C114U | -7.29
G69A G71U | -4.27
G17U A111G U133G | -2.2
C22G C53G C123G | -2.61
G17A C73U | -2.84
A5U C73G C94G | -2.07
G17A C62G G63A A74C A90C U109G | -5.9

Variant | polymerase ribozyme fitness (log ratio)
G35C A95G | -4.43
A46U U131G | -1.62
A5U C13G G63A C89U U92A G120A | -5.85
A37U G48U G57U G60U U129C | -1.31
G10U G60U U112A C114U | -1.17
A18U G61A C123G | 0.0966
G47A G57C A121U G135U | 1.05
G48C G52U U55G C76U A100C U125G | -4.57
U7C A74C C98U U112A | -2.74
G44A U109G | -5.09
G10A U59C G61A A83G C114G C115U | -7.23
C3A G51C G69U | -2.31
C3A A26U | -4.19
C8A A29U A90C | -2.87
C56A C64U C114A | -2.59
C62U C85G U87C | -2.53
G44C A91C G120A | -0.836
C11G U21A C72G G110A | -3.29
A27C C94A | -3.32
U21A A95G G117U | -1.3
C56U G60U | -3.21
C20A G61C | -4.5
G69U G93C | -0.253
A2U C13U A50G U112C | 0.516

Variant | polymerase ribozyme fitness (log ratio)
C72G A111G G122A | -1.48
A74G | 0.0609
C56U U125C | -2.74
G47U G110U U134A | -2.33
A2G C13G A37U C49A C53A A100G C114A C124A | -7.24
C49G G69U C94U C114A G120A | -1.33
G60C A66U G113A U126C | -4.03
C12U U33G | -5.61
C8A C89A | -1.24
A2U G42C C72A | -3.5
C15U C49A U92C U106A | -3.27
A75G A121G | 1.42
C11U C85A | -2.42
G52C U54G C82G | -1.46
C15U A46U U54G C123A | -1.74
A75G C82U A83C G93A A105C | -3.08
G69A C114A A121G U130G | -4.38
C11G C49U C73A G77A C102U G110U | -6.69
C8G U9A G17C A95G C115A | -0.322
C11A C49G G60A A75U G93U | -3.77
U54G G61A C86G | -5.3
C20G A46U G120A | -4.96
A2C C86U A90C | -4.21
C40G G117U | -3.26

Variant | polymerase ribozyme fitness (log ratio)
C89G G120A | -1.58
U9G G45U A74C G77A U112C | 0.536
A29C C79U | -3.18
A6U C13G A74U C88U C97U G117C C124G U132A | -3.99
U54A G61A U106A C124U U129G | -0.685
A18C A43G C72G C114U U129C | -4.8
U59G C73U U87G U116A | -4.15
G69A U81G | -6.79
A5U A43G G44A G52C C124U G128U | -4.6
C11U C123A | 0.93
U32C G42C U54G C94A | -2.1
C72G U112C | 1.51
U9A C13U | 0.446
C56G G77A C102U U116C | -3.2
A43U G48U C56G U116A | -6.74
G61C G110C | -5.94
C40A U87A C88U G135C | -2.71
C11G C15G G71U G93A G128U | -4.47
C12U A41U G71U A103U A118U | -6.98
C8G G60U C70U C79A U96C | -4.38
C40U A74G C88U G120A A121C | -0.0609
C3U A6U | 0.0323
C13A C49U C53G G61U | -3.09
C3G C73U | -2.12

Variant | polymerase ribozyme fitness (log ratio)
G48U G58U C72U | 0.601
G71C C99U | -4.28
C3A C72U | -1.75
U32C C98A U106A | -6.32
G36A G71A U87C C123G | 0.907
C12U A37C C94G G110A | -3.55
C3A G48A A84G | -1.29
G93U U130A U131C | -1.29
A27C G39A C62A C124G | -4.04
U33G C82A | -5.59
G10C A27G A43U G110U | -5.07
C22U U112A | -2.83
C62U C97U | -0.489
A27C G36A G48U A84U G113C G117U C123G | -8.45
C8A G113U | -1.81
G48A G69U C82G G113U U132A | -2.33
C28A U55G G71A | -5.6
C62G C86A C99U C101U A121G G122U | -5.18
C11U C34A G48U U87A | -5.34
A46C U54A A66C U87G G113U | -5.68
C15U U106A | -1.69
U9C C34U G69U C72U C101A G117A U125A U130G | -6.7
C22U G93C C114A | -6.86
